# Laboratory results from paper PMC7337043.
# Molecular target: mature Zika virus (ZIKV) virion, icosahedral shell of 180 copies each of the E protein and M protein (Zika virus)
# Assay: cryo-EM structure; purified ZIKV virions (10 mM Tris-HCl pH 8.0, 120 mM NaCl, 1 mM EDTA) mixed with purified Fab (15 mM Tris-HCl pH 8, 150 mM NaCl) at E protein:Fab molar ratio 1:2; single particle analysis with icosahedral symmetry, 4.1 Å
binder,measurement,value
"Fab of monoclonal antibody ZAb_FLEP (Fab, V domains shown) VH: EVQLLESGGGLVQPGGSLRLSCAASGFSFSTYSMHWVRQAPGKGLEWVSAISGEGDSAYYADSVKGRFTISRDNSKNTLYLQMNKVRAEDTAVYYCVGGYSNFYYYYTMDAWGQGTMVTVSS VL: DIVMTQSPASLSLSPGERATLSCRATQSISTFLAWYQQKPGQAPRLLIYDASTRASGIPARFSGSRSGTDFTLTITRLEPEDFAVYYCQQRYNWPPYSFGQGTKLEIK",stoichiometry N (Fab molecules per virion),120
